From the supplement of paper PMC9112550, “Optimization of the antimicrobial peptide Bac7 by deep mutational scanning” (BMC Biology, 2022) come the findings set out here.
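Further: peptides expressed intracellularly from a pBAD plasmid library in pooled LB shake-flask culture, induced with 0.3% L-arabinose, DNA abundance read by NGS, three biological replicates, DESeq2 with apeglm shrinkage.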

The subject of this series is Escherichia coli TOP10. The experiment in a line: shrunken log2 fold change of peptide-encoding DNA abundance (4.5 h post-induction vs induction); higher = less antimicrobial activity (less host growth inhibition). The following applies: time post-induction: 4.5 h; library: site-saturation at positions 5, 18, 19, 20.
Regarding RRIRGRPPRLPRPRPRPRGVPRP, the “shrunken log2 fold change” value was 0.89.
As for RRIRWRPPRLPRPRPRPYREPRP, the “shrunken log2 fold change” value was -0.773.
For RRIRARPPRLPRPRPRPPEKPRP, the “shrunken log2 fold change” value is 0.611.
Turning to RRIRDRPPRLPRPRPRPEKHPRP, the “shrunken log2 fold change” value was 0.377.
Turning to RRIRKRPPRLPRPRPRPAESPRP, the “shrunken log2 fold change” value turned out to be 0.563.
Regarding RRIRRRPPRLPRPRPRPHQTPRP, the “shrunken log2 fold change” value came to 0.17.
For RRIRTRPPRLPRPRPRPGHPPRP, the “shrunken log2 fold change” value is 0.09.
Consider RRIRCRPPRLPRPRPRPCFMPRP, for which the “shrunken log2 fold change” value was -0.416.
Take RRIRHRPPRLPRPRPRPCPSPRP: the “shrunken log2 fold change” value worked out at 0.0144.
As for RRIRRRPPRLPRPRPRPRGNPRP, the “shrunken log2 fold change” value came out at 0.524.
With RRIRQRPPRLPRPRPRPHEPPRP, the “shrunken log2 fold change” value was -0.00369.
On to RRIRTRPPRLPRPRPRPIHQPRP, for which the “shrunken log2 fold change” value is 0.0323.
Consider RRIRFRPPRLPRPRPRPGIEPRP, for which the “shrunken log2 fold change” value was -0.0616.
Under RRIRERPPRLPRPRPRPRMQPRP stands -0.0907; under RRIRHRPPRLPRPRPRPQKWPRP, -0.875; under RRIRARPPRLPRPRPRPGDQPRP, 0.804.
Consider RRIRLRPPRLPRPRPRPQIIPRP, for which the “shrunken log2 fold change” value stood at 0.0457.
RRIRMRPPRLPRPRPRPWSHPRP: the “shrunken log2 fold change” value was -0.0815.
The value for RRIRVRPPRLPRPRPRPVSCPRP was 0.182.
On to RRIRTRPPRLPRPRPRPDPQPRP, for which the “shrunken log2 fold change” value is -0.0945.
Consider RRIRTRPPRLPRPRPRPQRSPRP, for which the “shrunken log2 fold change” value was found to be 0.309.
Turning to RRIRVRPPRLPRPRPRPSYSPRP, the “shrunken log2 fold change” value is -0.376.
Regarding RRIRHRPPRLPRPRPRPNHHPRP, the “shrunken log2 fold change” value was -0.797.
Regarding RRIRTRPPRLPRPRPRPPHLPRP, the “shrunken log2 fold change” value was 0.0444.
Turning to RRIRVRPPRLPRPRPRPAWSPRP, the “shrunken log2 fold change” value is 0.192.
In the case of RRIRERPPRLPRPRPRPEAWPRP, the “shrunken log2 fold change” value is 0.0366.
The value for RRIRARPPRLPRPRPRPYDAPRP was 0.0611.
For the sequence RRIRSRPPRLPRPRPRPTGTPRP, the “shrunken log2 fold change” value was -0.0039.
As to RRIRQRPPRLPRPRPRPEPGPRP, the “shrunken log2 fold change” value amounted to 0.485.
On to RRIRSRPPRLPRPRPRPHSDPRP, for which the “shrunken log2 fold change” value is -0.0834.
Consider RRIRPRPPRLPRPRPRPCQKPRP, for which the “shrunken log2 fold change” value was -0.00783.
RRIRQRPPRLPRPRPRPMTGPRP: the “shrunken log2 fold change” value is 0.0323.
Consider RRIRPRPPRLPRPRPRPTWRPRP, for which the “shrunken log2 fold change” value was 0.639.
With RRIRCRPPRLPRPRPRPNWFPRP, the “shrunken log2 fold change” value was -0.201.
Regarding RRIRYRPPRLPRPRPRPHYAPRP, the “shrunken log2 fold change” value is -0.0853.
As for RRIRMRPPRLPRPRPRPLHMPRP, the “shrunken log2 fold change” value was -0.0934.
For RRIRDRPPRLPRPRPRPDCVPRP, the “shrunken log2 fold change” value was found to be 0.381.
Turning to RRIRTRPPRLPRPRPRPGCWPRP, the “shrunken log2 fold change” value worked out at 0.453.
For the sequence RRIRQRPPRLPRPRPRPHGMPRP, the “shrunken log2 fold change” value was 0.0346.
For RRIRPRPPRLPRPRPRPIKNPRP, the “shrunken log2 fold change” value was -0.219.
The value for RRIRYRPPRLPRPRPRPRGEPRP was -0.101; that for RRIRWRPPRLPRPRPRPSPPPRP was 0.423.
Consider RRIRNRPPRLPRPRPRPTDKPRP, for which the “shrunken log2 fold change” value worked out at 0.008.
Turning to RRIRSRPPRLPRPRPRPYCPPRP, the “shrunken log2 fold change” value was -0.802.
Regarding RRIRVRPPRLPRPRPRPLMDPRP, the “shrunken log2 fold change” value is -0.0628.
Consider RRIRERPPRLPRPRPRPFIVPRP, for which the “shrunken log2 fold change” value was -0.218.
Regarding RRIRCRPPRLPRPRPRPRYAPRP, the “shrunken log2 fold change” value is -0.229.
With RRIRMRPPRLPRPRPRPYPVPRP, the “shrunken log2 fold change” value is -0.237.
On to RRIRDRPPRLPRPRPRPYNHPRP, for which the “shrunken log2 fold change” value is -0.704.
On to RRIRPRPPRLPRPRPRPPLIPRP, for which the “shrunken log2 fold change” value is -0.338.
For the sequence RRIRLRPPRLPRPRPRPYTMPRP, the “shrunken log2 fold change” value is -0.923.
With RRIRSRPPRLPRPRPRPIVDPRP, the “shrunken log2 fold change” value worked out at 0.115.
Under RRIRCRPPRLPRPRPRPFTLPRP stands -0.048.
RRIRSRPPRLPRPRPRPCWGPRP: the “shrunken log2 fold change” value was 0.109.
For the sequence RRIRFRPPRLPRPRPRPLISPRP, the “shrunken log2 fold change” value was -0.178.
On to RRIRGRPPRLPRPRPRPWQAPRP, for which the “shrunken log2 fold change” value is 0.00236.
On to RRIRIRPPRLPRPRPRPLIVPRP, for which the “shrunken log2 fold change” value is -0.622.
Under RRIRYRPPRLPRPRPRPAHLPRP stands -0.0584; under RRIRDRPPRLPRPRPRPYEIPRP, -0.0176.
Take RRIRLRPPRLPRPRPRPWNMPRP: the “shrunken log2 fold change” value is -0.31.
With RRIRDRPPRLPRPRPRPPVQPRP, the “shrunken log2 fold change” value stood at 0.104.
Turning to RRIRLRPPRLPRPRPRPACRPRP, the “shrunken log2 fold change” value stood at 0.227.
As for RRIRCRPPRLPRPRPRPERQPRP, the “shrunken log2 fold change” value is -0.00823.
The value for RRIRMRPPRLPRPRPRPAPWPRP was 0.807; that for RRIRARPPRLPRPRPRPWGTPRP was 0.211; that for RRIRGRPPRLPRPRPRPCYFPRP was -0.0409.
As to RRIRDRPPRLPRPRPRPCEEPRP, the “shrunken log2 fold change” value is -0.187.
On to RRIRSRPPRLPRPRPRPNGYPRP, for which the “shrunken log2 fold change” value is -0.12.
Consider RRIRERPPRLPRPRPRPCTFPRP, for which the “shrunken log2 fold change” value was -0.129.
On to RRIRLRPPRLPRPRPRPQGWPRP, for which the “shrunken log2 fold change” value was 0.495.
The value for RRIRERPPRLPRPRPRPSHNPRP was -0.903; that for RRIRWRPPRLPRPRPRPCAYPRP was -0.129.
As for RRIRSRPPRLPRPRPRPIAYPRP, the “shrunken log2 fold change” value is -0.0673.
Take RRIRLRPPRLPRPRPRPVDHPRP: the “shrunken log2 fold change” value is -0.0221.
Take RRIRWRPPRLPRPRPRPLASPRP: the “shrunken log2 fold change” value came to 0.26.
RRIRWRPPRLPRPRPRPAIWPRP: the “shrunken log2 fold change” value was found to be 0.596.
With RRIRKRPPRLPRPRPRPMQWPRP, the “shrunken log2 fold change” value was 0.263.
On to RRIRKRPPRLPRPRPRPEYMPRP, for which the “shrunken log2 fold change” value worked out at 0.264.
Consider RRIRCRPPRLPRPRPRPMSAPRP, for which the “shrunken log2 fold change” value is -0.0757.
Consider RRIRFRPPRLPRPRPRPASWPRP, for which the “shrunken log2 fold change” value was 0.026.
RRIRARPPRLPRPRPRPMQHPRP: the “shrunken log2 fold change” value came out at 0.642.
In the case of RRIRIRPPRLPRPRPRPPTPPRP, the “shrunken log2 fold change” value is 0.238.
Regarding RRIRIRPPRLPRPRPRPVSEPRP, the “shrunken log2 fold change” value was -0.164.
Under RRIRNRPPRLPRPRPRPKTNPRP stands 0.0551.
In the case of RRIRARPPRLPRPRPRPAIAPRP, the “shrunken log2 fold change” value was 0.547.
Regarding RRIRSRPPRLPRPRPRPHWVPRP, the “shrunken log2 fold change” value is -0.166.
The value for RRIRFRPPRLPRPRPRPCWTPRP was -0.323.
Under RRIRCRPPRLPRPRPRPVNTPRP stands -0.259; under RRIRWRPPRLPRPRPRPKQVPRP, 0.285.
With RRIRKRPPRLPRPRPRPFQIPRP, the “shrunken log2 fold change” value worked out at 0.0332.
In the case of RRIRWRPPRLPRPRPRPDLTPRP, the “shrunken log2 fold change” value came to 0.251.
Turning to RRIRIRPPRLPRPRPRPMGPPRP, the “shrunken log2 fold change” value is 0.0284.
The value for RRIRWRPPRLPRPRPRPHSMPRP was -0.216.
For RRIRCRPPRLPRPRPRPIFCPRP, the “shrunken log2 fold change” value was -0.339.
Consider RRIRERPPRLPRPRPRPSLYPRP, for which the “shrunken log2 fold change” value was -0.558.
Consider RRIRCRPPRLPRPRPRPEIDPRP, for which the “shrunken log2 fold change” value was 0.138.
RRIRMRPPRLPRPRPRPLHPPRP: the “shrunken log2 fold change” value stood at 0.439.
In the case of RRIRTRPPRLPRPRPRPEALPRP, the “shrunken log2 fold change” value was determined as 0.0496.
As for RRIRERPPRLPRPRPRPTFCPRP, the “shrunken log2 fold change” value is -0.0701.
Consider RRIRPRPPRLPRPRPRPPFKPRP, for which the “shrunken log2 fold change” value worked out at 0.0437.
RRIRNRPPRLPRPRPRPIMFPRP: the “shrunken log2 fold change” value was -0.0388.
Turning to RRIRWRPPRLPRPRPRPGPCPRP, the “shrunken log2 fold change” value was determined as 0.101.
Turning to RRIRKRPPRLPRPRPRPCAIPRP, the “shrunken log2 fold change” value is 0.101.
On to RRIRARPPRLPRPRPRPIGMPRP, for which the “shrunken log2 fold change” value worked out at 0.0267.
Consider RRIRTRPPRLPRPRPRPTHTPRP, for which the “shrunken log2 fold change” value is 0.0425.
Regarding RRIRDRPPRLPRPRPRPIISPRP, the “shrunken log2 fold change” value was found to be 0.0102.
Regarding RRIRTRPPRLPRPRPRPQYEPRP, the “shrunken log2 fold change” value came out at 0.00772.
Under RRIRVRPPRLPRPRPRPFCWPRP stands 0.163; under RRIRSRPPRLPRPRPRPYLCPRP, -0.627; under RRIRYRPPRLPRPRPRPHIRPRP, -0.206.
RRIRWRPPRLPRPRPRPTIHPRP: the “shrunken log2 fold change” value was 0.13.
With RRIRARPPRLPRPRPRPFCKPRP, the “shrunken log2 fold change” value was -0.25.
As to RRIRQRPPRLPRPRPRPFAFPRP, the “shrunken log2 fold change” value was 0.087.
Under RRIRPRPPRLPRPRPRPCHQPRP stands 0.0122; under RRIRKRPPRLPRPRPRPDAHPRP, 0.534.
The value for RRIRMRPPRLPRPRPRPTYRPRP was 0.422; that for RRIRWRPPRLPRPRPRPSMNPRP was 0.0339; that for RRIRVRPPRLPRPRPRPIWGPRP was 0.0376.
As for RRIRNRPPRLPRPRPRPKQAPRP, the “shrunken log2 fold change” value is -0.00865.
For the sequence RRIRYRPPRLPRPRPRPVRNPRP, the “shrunken log2 fold change” value is -0.161.
Under RRIRGRPPRLPRPRPRPIKEPRP stands -0.104.
In the case of RRIRRRPPRLPRPRPRPLKRPRP, the “shrunken log2 fold change” value was found to be 0.161.
Regarding RRIRIRPPRLPRPRPRPCGMPRP, the “shrunken log2 fold change” value was found to be 0.0729.
As for RRIRWRPPRLPRPRPRPHCSPRP, the “shrunken log2 fold change” value was -0.00908.
Take RRIRLRPPRLPRPRPRPDSMPRP: the “shrunken log2 fold change” value was -0.166.
